Source: patent US20260103503A1
pKd: −log10 of the molar value.

Experiments:
[1] = target: Tm NY-ESO (human); assay: flow cytometry, tetramer staining of transduced CD4+ T cells; nt control Q2 0.56
[2] = target: Tm NY-ESO (human); assay: flow cytometry, tetramer staining of transduced CD8+ T cells; nt control Q2 0.79
[3] = target: Tm NY-ESO (human); assay: flow cytometry, tetramer staining of transduced CD4+ T cells; nt control Q1 0.020
[4] = target: Tm NY-ESO (human); assay: flow cytometry, tetramer staining of transduced CD8+ T cells; nt control Q1 0.084
[5] = target: NY-ESO-1 peptide on HLA-A*02:01 (human); assay: SPR as tabulated in Table 2 (BIAcore analysis); reference TCR; soluble, other

Substance | Q2 (Tm NY-ESO+ CD4+), percent of cells [1] [%] | Q2 (Tm NY-ESO+ CD8+), percent of cells [2] [%] | Q1 (Tm NY-ESO+ CD4-), percent of cells [3] [%] | Q1 (Tm NY-ESO+ CD8-), percent of cells [4] [%] | pKd [5] | koff [5] [s⁻¹] | kon [5] [M⁻¹ s⁻¹]
1G4LY TCR on transduced T cells | 63.2 | 64.9 | 0.89 | 2.53 |  |  | 
1G4 |  |  |  |  | 4.85 | 0.12 | 17000
